Measured values from US20250032543A1 (CHILDREN S HOSPITAL OF PHILADELPHIA, published 2025).

Target: T1, recombinant human (rh) CD16A protein conjugated with APC fluorophore (human, UniProt P08637 17-208, APC fluorophore conjugate)
T1 construct: also called APC-tagged rhCD16A
Assay: 'sandwich' flow cytometry: NB-EBC1 cells incubated with cSN, then stained with APC-conjugated rhCD16A
Method: FIGS. 3A-E. Production and binding characterization of BICEs. (FIG. 3A) Flow cytometry histograms showing His-tag cell surface expression in neuroblastoma cells incubated with concentrated supernatants (cSNs) from CAR constructs (CAR.GPC2, CAR.GPC2-BiCE.GD2 or CAR.GPC2-BICE.CD19) or 1×PBS and then stained with phycoerythrin (PE)-tagged anti-His-tag antibody. Neuroblastoma cells with high (NB-EBC1 and SMS-SAN) and low (SY5Y) GD2 expression were selected. Leukemia (NALM6) cells with high CD19 were utilized as controls. (FIG. 3B) Concentration-dependent binding of CAR.GPC2-BICE.GD2 cSN in GD2-high NB-EBC1 cells. (FIG. 3C) Binding competition assay between FDA-approved anti-GD2 antibody dinutuximab and CAR.GPC2-BiCE.GD2 cSNs. (FIG. 3D) Graphical scheme of the “sandwich” binding assays where GD2-expressing neuroblastoma cells were incubated with bicistronic vector cSNs and then stained with recombinant human (rh) CD16A protein previously conjugated with APC fluorophore. (FIG. 3E) Flow cytometry histograms showing CD16A sdAb APC staining in GD2-positive cells incubated with GPC2.CAR-GD2.BiCE cSN but not with control vector cSN (GPC2.CAR-CD19.BiCE).
Next, to study whether BiCEs might produce a molecular synapsis between GD2-expressing cells and CD16a, a “sandwich” binding assay was developed as illustrated in FIG. 3D. […]

T1 sequence (P08637 17-208 limits assumed): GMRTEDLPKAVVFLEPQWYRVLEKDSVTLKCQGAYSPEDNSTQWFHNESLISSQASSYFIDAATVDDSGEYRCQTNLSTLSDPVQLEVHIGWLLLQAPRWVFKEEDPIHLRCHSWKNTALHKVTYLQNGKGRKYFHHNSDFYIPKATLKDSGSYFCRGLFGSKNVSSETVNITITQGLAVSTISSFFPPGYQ

binding result: binds
B1: GD2-targeted bispecific innate immune cell engager (GD2 scFv 14g2a linked to CD16A single-domain antibody sdA1, His-tagged) (bispecific antibody)
chain: DILLTQTPLSLPVSLGDQASISCRSSQSLVHRNGNTYLHWYLQKPGQSPKLLIHKVSNRFSGVPDRFSGSGSGTDFTLKISRVEAEDLGVYFCSQSTHVPPLTFGAGTKLELKGSTSGSGKPGSGEGSTKGEVKLQQSGPSLVEPGASVMISCKASGSSFTGYNMNWVRQNIGKSLEWIGAIDPYYGGTSYNQKFKGRATLTVDKSSSTAYMHLKSLTSEDSAVYYCVSGMEYWGQGTSVTVSSGSTSGSGKPGSGEGSTKGEVQLVESGGGLVQPGGSLRLSCAASGFTFSNYGMSWVRQAPGKGLEWIGSIYYSGSTNYNPSLKSLVTISRDNSKNTLYLQMNSLRAEDTATYYCARESIDYWGQGTLVTVSSHHHHHH
notes: Used as concentrated supernatant (cSN) of HEK 293T cells transfected with the bicistronic GPC2.CAR-GD2.BiCE vector; also called GD2 BiCE; GD2.BiCE
